Data on 22 sequences can be found in the DeepSol protein solubility set.

This data set is described as follows: soluble on expression in E. coli; label from the status in PepcDB or PDB records.
Consider “MNNLIKAINELKKEKNAIILGHYYQKGEIQDIADYVGDSLALAQLAAKTEADIIVMCGVHFMGETAKVLCPDKKVLVPDMEAGCSLADSCPADQFAQFVKEHPGHTVISYVNTTAAVKAVTDVVVTSTNARQIVESFPKDEKIIFGPDRNLGNYINSVTNRNMLLWDGACHVHEQFSVEKIVELKTQHPEALVLAHPECKSTVLKLADVVGSTAALLKYAVNHPENTYIVATESGILHEMQKKCPQTTFIPAPPNDSTCGCNECSFMRLNTLEKLYECLKNESPEITVDPEIAEKAVRPIQRMLEISAKLGL”, for which the “soluble on expression in E. coli” value is given as “not soluble”.

On to “EQTQNLYIEGDNLDAMKLLKKSYAGKVDVIYIDPPYNTGKDFIFNDTFALSQEESDEKQGRYNEEGQRLFQNTEANGKFHSDWCSMMYARLMLARTLLNDNGIIFISIDDHELANLIKIGNEVFNASNFIDVFNWAKTETPENLSKKSKQIIEYIVCYQKKKNDMKFQGLKKESVSSNGLLNQPNSVGILTFPANKVVTSIPDGVIKAGMYGTDAYDVELLEDTTVRGGLFTAPVKLKAKFKWSQANLDKEIQKGTTIKIPTLKLSPSYEKLEYDPEVPPNLINYKVGVETNEQAGNHQLQFFDKKVFNFPKPVSLIQYLCEFIDTKNKDCIVMDFFSGSGTTAEAVMRMNMKPRKNKVKYILVQLPEDVTETIKKAKTPSEKEIMQNAIDFLTENHKALNICELSKERIRRAGDTIEAECNQRKSKDLPDIGFRVFRIADSNMKDVYYSAK”, for which the “soluble on expression in E. coli” value is “not soluble”.

For the sequence “RTEAGDAYYSKFANNTPLPALMVSRKKFGSSYVYDKSYKTWDVPIAEQMEQKAKINIFAVAEYTDTQKIKVTVKGKILEGNTLPKSMVQVYLLEDKLIAPQVDGNTTVENYEHNHVLRGAVNGIWGEEFVNLKDYLYTYAVEPLSGMSFVAENYSIVAFVYDVQTFEVYDVVHVKINPQSDGK”, the “soluble on expression in E. coli” value is listed as “soluble”.

Consider “GPYLVIVEQPKQRGFRFRYGCEGPSHGGLPGASSEKGRKTYPTVKICNYEGPAKIEVDLVTHSDPPRAHAHSLVGKQCSELGICAVSVGPKDMTAQFNNLGVLHVTKKNMMGTMIQKLQRQRLRSRPQGLTEAEQRELEQEAKELKKVMDLSIVRLRFSAFLRDSDGSFSLPLKPVISQPIHDSKSPGASNLKISRMDKTAGSVRGGDEVYLLCDKVQKDDIEVRFYEDDENGWQAFGDFSPTDVHKQYAIVFRTPPYHKMKIERPVTVFLQLKRKRGGDVSDSKQFTYYPLV”, for which the “soluble on expression in E. coli” value is reported as “soluble”.

Consider “MGSDKIHHHHHHMKRLIGCVLLFLGASLYGCGGQGEDPETIVSEKPIEEWDDEEEDGGEWTVPDIDLSNFRHDPTEWGENVTGVKTKLDTKEQVIALTLDACGGPHGSQFDEELLAYLQEKEIPATLFVNERWIDENEDVFLSLANNPLFQIENHGSAHKPLSVNGRNAWNIEGTKSPEEVVNEITNNQQRIYQLTGRSTRLFRSGTAFYDEVAVEIANALGVEVVNYSVLGDAGATFTAEQVKAALLNAEPGAIVLMHMNQPASGTAAGVKAAIPLLIEKGYTFARLDEYDLT”, for which the “soluble on expression in E. coli” value is given as “not soluble”.

“MGSDKIHHHHHHMGKARRGLQRGNGVHRHEAVRMFISLREIAPQGGLGPPRQLAGRRIAHVLDQAFRVALEVSARCHAVRVAHRVKSFVCTQQSRFVMGRQRLASMAHLRQNPPMAKLYFNYSTMNAGKSTLLLQASYNYIERGMQTYLLTANFDDRAGMGRIGSRIGIEAEADTYTQSDDLFAKIDARLKAGPCACVLVDEAQWMTRDQVWQLARAVDDLGVPVMCYGLRVDFRGELFPGSAALLALADEMREVRTICHCGRKATMVIRVGEDGNALAEGAQIEVGGNDRYISLCRKHFREAVGDVPV”: the “soluble on expression in E. coli” value was “not soluble”.

“MSAGKTGNHLMISDSKLLASAAWDAQSLNELKAKAGEDPAANIRPVARQVEGMFVQMMLKSMRDALPKDGLFSSEHTRLYTSMYDQQIAQQMTAGKGLGLAEMMVKQMTPEQPLPEEPTPAAPMKFPLETVVRYQNQALSQLVQKAVPRNYDDSLPGNSKAFLAQLSLPAQLASQQSGVPHHLILAQAALESGWGQRQIRRENGEPSYNLFGVKASGNWKGPVTEITTTEYENGEAKKVKAKFRVYSSYLEALSDYVGLLTRNPRYAAVTTAASAEQGAQALQDAGYATDPHYARKLTNMIQQMKSISDKVSKTYSMNIDNLF”: the “soluble on expression in E. coli” value is on record as “soluble”.

In the case of “MGACWSDNPKKVLEMLSPMNIIAITRSIPENTPNSWFIYWLTKVEEGEVRENIYAISPTKLEILPDLVKKALKLGYDGVYIDGIEALVIENGFKSVAKFLLHIKDIVLAENKFIILTLDPRALKEEEIKIIEKEFKKLELSLEHHHHHH”, the “soluble on expression in E. coli” value is “not soluble”.

Turning to “MGSDKIHHHHHHMNEAFLSLTPAQIRHRLHAAPELSGQETETARRVAGWLEQAGATRIVTGLGGHGVAGVFAGTLPGPRVMFRAELDGLPIDETAEIAWKSTCEHVAHSCGHDGHMAVLLGLAQRLAEQPPTHGETVLLFQPSEETGRGAREVVESSRFEEIAPDHVYALHNLPGKPLGEVSVREGAMTCASRGLIIRLNGLCAHAAHPEQGRNPALAMCRILQGLKRLPQQLPDDQGLVMVTLIHARLGEVAFGTSPGQAEVMATLRTEDDAMMRALAEASVALARAEAEEDDLGIEIDWCDVFQATRNHPAAVASIREAARSLNMPLTALPEAHRWSEDFGWLAAQGQGALLTLGAGERCLPLHNPGYDFPDDLLDTGIALFERLVRLHQSDV”, the “soluble on expression in E. coli” value was “not soluble”.

Take “MSKWIILSDNHKETGILYHIYELHKDADKFLHLGDSEFSYNDTELSLYQRVKGNCDFYPEFLEEEITEENGIRAFYTHGHLYQVNQTRMKLAEKAKELGCLFAFYGHTHVAKYEQIGGIHVINPGSISQSRSQIEETFAELVYKEDENTIILNFRNRENQIIETVKIEFLEHHHHHH”: the “soluble on expression in E. coli” value was “soluble”.

Consider “MSLIENLWRGICIISASEDAFSAGETIKEKLKSFEIPVVHYRYKDAEIETIWKCYDAIVFVMALEGATRIVCKYAKSKTEDPAIVCIDDKINYVIPLLGGHWGANDIARELSVILNSTPIITTAAEIKGKLSIERIANILIAKIINPENIVKINAALLRDESICIDGIDVNVNFPENIKVNSEECSYIISLRGDKEYKDKIVVWLKPLKISIGIGSKKDVKMEEIRDGIYKVLERLNLKRERIGIIASIREEVKKIADEFNVRFRLVNEEEINNFMNPCLTPPSKTLIEVGLKGVAEISALIAGGRNSKLILRKIAISRNSTIAVATYEGHHHHHH”, for which the “soluble on expression in E. coli” value is listed as “soluble”.

As for “SITKPQNKSAKLVDGELLVKASVESFGLEDEKYWFLVCCELSNGKTRQLKRYYQDFYDLQVQLLDAFPAEAGKLRDAGGQWSKRIMPYIPGPVPYVTNSITKKRKEDLNIYVADLVNLPDYISRSEMVHSLFVVLNNGFDREFERDENGSHHHHHH”, the “soluble on expression in E. coli” value is “soluble”.

In the case of “MKKVIFKPLKSYPVKMAMIALTLLAASPITHAEESKMKNATITVTATGENQATPDMAIINLAVVTQDKTAQKALADNNKSMNDIINAFKNNGIQANDLQTSGLSIYQSNPNKDHEKKNNGIVYHVSNSLTVRIRDLSNAGKIFDQAMALGVNSVHGITFTNANTKPFYQEARKKAIAEAIEKAKTIAEAADLKLGKIIKINENDDNYYSRPHLMSKAVNANYTDTTFSSGELNYSVSVTIVFAID”, the “soluble on expression in E. coli” value was “not soluble”.

Take “MSQHLVPEAKNGLSKFKNEVANEMGVPFSDYNGDLSSRQCGSVGGEMVKRMVEKYEQSMK”: the “soluble on expression in E. coli” value is on record as “soluble”.

On to “SLRTEQEMMDVILTIAKKEERIRAVYMNGSRTNSNVPKDLFQDYDIVYVVTDIAPFIQEQQWLKKFGEPLMIQEPDQLDAGIGVNRDFSRRYAFLMLFTDGNRIDLTLQTKETMREVYENDTLTVPLLDKDHCLPPIPPPSDSDYHVKEPTEGEFISCTNNFWWCLQNVAKGIWRDELPYAKQMFELTTRASLDEMVNWWIGLENDFQLSTGKLGKYFKKHLPPPYWAMYEATYANSDYEQMWESIFIACDLFRTLAKDVAAACSFTYPETDDRNMTDYLHRVKNLSADATDM”, for which the “soluble on expression in E. coli” value is on record as “soluble”.

As to “AHHHHHHGSDGLTAQEFLTLVKLERGMYLSKEEKDDVERIKEKNKRVLELIKDHHKDFDVYLTGHIDFDNLLTMYEIYKELKKRGVNVYYPGLFWANWREKGEIEYKIKNNAKILLVITQTISFGTSVDVGFFIHRKINEEEAKIVFCYTGPSYEFESLKTHPASIYIDYFTRDIEDAIEKTLEFLSL”, the “soluble on expression in E. coli” value is “soluble”.

Regarding “EVKGIGEYKILGESIDDAAGEAFDKTAKLMGLDYPGGPLLSKLAEKGTPGRFKFPRPMTNVPGLDMSFSGLKTFTANTIAANGDDEQTRADIAYAFEEAVCATLAIKCKRALEQTGMKRIVIAGGVSANRRLRAELEKLAKKIGGEVYYPRTEFCTDNGAMIAYAGMQRLKNGEVADMSVEARPRWPIDQLTPIA”, the “soluble on expression in E. coli” value is recorded as “not soluble”.

“MVRRIAVFSLYNEHGIADDYVIFLLEKLREFVERIVVVSNGNLSKLSEIAIKASCDQLLVRENVGFDVWGYKTGIDAVGFDALSEYDELILLNDTCYGPLFPFSEMFSEMERRDCDFWGSAAHSKMTPNPFTGTGHLPRHLTANFIAVREKMLKSRAFKTYWENLPAIKTYIDAIMLHESQFTKHFTDLGYSAEAYVDPDKYGSHYPAFINVDETIINRFPLLKRRPFFHDPTFLNAQGIDLPRALRVLEETSDYDLNLIWRNVLRTSELRNLNTNAALMSVLPDERAKDDDAPSDYGKIAVCAHIYYTDMLEEILALTGNIPVPYDFIATTDTPDKKAEIEATLAKRPGVKNVIVRVVEKNRGRDMSSLFISLRDLLVDDRYDLVCRLHTKKSPQVQASRSNLFKRHMLENLLNTRGYVHNVLDMFHDNPSVGLAVPPVVHISYPTMGHAWFFNRPKVEETARLLNIKVKFDHDTPVAAYGTMFWFRPRALRKMFEHKWKWEDFNAEPNHVDGGLAHVLERLIAYAAQDAGYLEHHHHHH”: the “soluble on expression in E. coli” value is given as “soluble”.

Take “MGSDKIHHHHHHMRYQNTYAQLDTRLYHEQLPNPLDNPRAGHFNNQVADQLGWTKAADLMARWVEILGGQYVPAEFQPLSMAYAGHQFGQWAGQLGDGRGLLMTQVLDKNNQLQDLHLKGAGLTPYSRMGDGRAVLRSTIREYLCGHALTQLGIASSNALGFVVSDTKVRRERLEAGAALMRVADSHIRLGHVEWIASFAPDLLAEFTDYMIDTYYPECRDSEKPVLAFLQAVVERTARMIADWQLIGFAHGVMNTDNLSITGSTLDFGPFGFMERFNPAWINNHSDHSGRYAYQNQPAIGHWNLNVWLPHFMRLTQAGVTRETLADCLAPYEATFMQHYQQGLCRKLGLPHQRESLSLAFEWLTLLEDNLLDYTNSFRALLGLIAPNEHLYEQQLLATMTAELNPEAQQVWQVWSTRYLAQIQQVSITQAIEEMQASNPIYILRNSMAQRVIVAAEQGQFEELNRVFDLLAKPYTLQDSAIELDTLPPAPHAPQMPISCSS”: the “soluble on expression in E. coli” value is “not soluble”.

As for “MAQTEKLTDYVNPFVGTDGYGNVYPGAQIPFGGIQISPDTDSRFYDAASGYKYNHLTLMGFSLTHLSGTGIPDLGDFLFIPGTGEMKLEPGTHEDPDQGYRSRYSHDKEWASPNYYAVELADYGVKAEMTSGVRSGMFRFTYPESDNAFIMIDMNHTLWQSCEWSNLRMINDSTITGYKLVKGWGPERHVYFTATFSKKLEHHHHHH”, the “soluble on expression in E. coli” value was “not soluble”.

For the sequence “MYRKGAQAERELIKLLEKHGFAVVRSAGSKKVDLVAGNGKKYLCIEVKVTKKDHLYVGKRDMGRLIEFSRRFGGIPVLAVKFLNVGWRFIEVSPKIEKFVFTPSSGVSLEVLLGIQKTLEGKS”, the “soluble on expression in E. coli” value is reported as “soluble”.

For the sequence “MSLGYLNNVTGYREDLLANRAIVKHGNFALLTPDGLVKNIIPGFENCDATILSTPKLGASFVDYLVTLHQNGGNQQGFGGEGIETFLYVISGNITAKAEGKTFALSEGGYLYCPPGSLMTFVNAQAEDSQIFLYKRCYVPVEGYAPWLVSGNASELERIHYEGMDDVILLDFLPKELGFDMNMHILSFAPGASHGYIETHVQEHGAYILSGQGVYNLDNNWIPVKKGDYIFMGAYSLQAGYGVGRGEAFSYIYSKDCNRDVEIEGGSHHHHHH”, the “soluble on expression in E. coli” value was “soluble”.
